The stoichiometry N is the number of molecules, sites or subunits per partner or assembly.

The source of these data is publication PMC9599597.

This experiment addresses F5_SusD-like protein (uncultured human gut Bacteroides strain). The experiment can be described thus: SEC; Superdex 200 16/600 column; 20 mM Tris-HCl, 150 mM NaCl, pH 7.5. Background: In gel filtration, larger molecules generally elute earlier.

The substance F5_SusD-like protein (natural protein) had a stoichiometry N of 2.
